Our source for the stoichiometry N values is PMC4138882.

The experiment deals with 3ftt-wt, wild-type trimeric protein from which T3-08 was derived (PDB ID 3FTT), C-terminal (His)6 construct. The experiment is described as follows: SEC.

3ftt-wt, wild-type trimeric protein from which T3-08 was derived (PDB ID 3FTT), C-terminal (His)6 construct, sequence (Q5HCZ5 whole entry): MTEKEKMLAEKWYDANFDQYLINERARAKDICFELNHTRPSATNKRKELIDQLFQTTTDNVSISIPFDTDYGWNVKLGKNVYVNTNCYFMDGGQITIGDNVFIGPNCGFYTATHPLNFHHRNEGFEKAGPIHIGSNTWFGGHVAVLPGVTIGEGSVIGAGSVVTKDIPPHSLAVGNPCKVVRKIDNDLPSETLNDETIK

With “3ftt-wt, wild-type trimeric protein from which T3-08 was derived (PDB ID 3FTT), C-terminal (His)6 construct (natural protein)”, the stoichiometry N amounted to 3 subunits.
